According to PMC10484726, “Archaeal Hel308 suppresses recombination through a catalytic switch that controls DNA annealing”:

Target: T1, Mth-Hel308 wild type (Methanothermobacter thermautotrophicus, UniProt O26901 1-690)
T1 sequence: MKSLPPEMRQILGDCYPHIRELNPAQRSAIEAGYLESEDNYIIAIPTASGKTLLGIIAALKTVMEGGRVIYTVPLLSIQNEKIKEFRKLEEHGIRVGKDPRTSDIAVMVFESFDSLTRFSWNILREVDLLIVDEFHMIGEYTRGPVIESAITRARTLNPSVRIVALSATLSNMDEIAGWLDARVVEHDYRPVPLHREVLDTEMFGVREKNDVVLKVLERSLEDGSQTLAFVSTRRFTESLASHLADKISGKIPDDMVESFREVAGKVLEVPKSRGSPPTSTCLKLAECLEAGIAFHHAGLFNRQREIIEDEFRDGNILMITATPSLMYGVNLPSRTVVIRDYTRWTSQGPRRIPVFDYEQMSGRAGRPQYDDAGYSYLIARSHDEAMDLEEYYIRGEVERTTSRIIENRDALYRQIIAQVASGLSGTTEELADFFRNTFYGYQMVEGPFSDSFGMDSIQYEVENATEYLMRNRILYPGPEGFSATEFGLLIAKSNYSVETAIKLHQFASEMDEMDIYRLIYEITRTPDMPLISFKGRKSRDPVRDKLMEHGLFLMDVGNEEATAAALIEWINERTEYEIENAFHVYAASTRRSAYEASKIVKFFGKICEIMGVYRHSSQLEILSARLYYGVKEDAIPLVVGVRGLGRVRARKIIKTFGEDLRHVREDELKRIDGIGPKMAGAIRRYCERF
Test: EMSA; 5 mM EDTA; 25 nM DNA; EMSA: 20 mM Tris-HCl pH 7.5, 100 ug/ml BSA, 7% glycerol, 25 mM DTT, 5 mM EDTA, 25 nM Cy5-DNA; 5% TBE gel; no added salt stated; 37 C 10 min stated for duplex DNA reactions
Conditions: protein: recombinant; tags: N-terminal His6; label: Cy5 (end label); fork

B1: forked DNA substrate (dsDNA)
DNA 1: GTCGGATCCTCTAGACAGCTCCATGATCACTGGCACTGGTAGAATTCGGC
DNA 2: CAACGTCATAGACGATTACATTGCTACATGGAGCTGTCTAGAGGATCCGA
Kd: 68.2 nM
